Series [1] addresses substrate IV, H-Lys-Ala-Arg-Val-Nle-Phe(p-NO2)-Glu-Ala-Nle-NH2 (HIV).
Series [2] relates to substrate IV, H-Lys-Ala-Arg-Val-Nle-Phe(p-NO2)-Glu-Ala-Nle-NH2. The experiment in a line: steady-state kinetics of substrate IV hydrolysis at 22° C., RP HPLC; the filing calls Km the binding affinity.

“[Ala^38, SPro^39, Abu^67,95]-HIV-1 PR (enzyme)”: in series [1], the kcat/Km, hydrolysis of substrate IV was 98400 M^-1, S^-1. Consider recombinant HIV-1 PR (enzyme), for which, in series [1], the kcat/Km, hydrolysis of substrate IV was 121000 M^-1, S^-1.

As to recombinant HIV-1 PR, the Km (commonly the concentration of substrate that gives half-maximal velocity) in series [2] came to 10.1 µM. Same read-out and setting: for “[Leu-NHCH2-Thz^38-39, Abu^67,95]-HIV-1 PR” the value was 11.4 µM. Regarding [SPro^39, Abu^67,95]-HIV-1 PR (enzyme), in series [1], the kcat/Km, hydrolysis of substrate IV is 119000 M^-1, S^-1. “[Leu-NHCH2-Thz^38-39, Abu^67,95]-HIV-1 PR (enzyme)”: in series [1], the kcat/Km, hydrolysis of substrate IV was 36300 M^-1, S^-1.

Consider [Ala^38, SPro^39, Abu^67,95]-HIV-1 PR, for which, in series [2], the Km was determined as 8.2 µM. Take [SPro^39, Abu^67,95]-HIV-1 PR: the Km in series [2] stood at 11.9 µM.

These data come from patent US6310180.
